Patent US20180028658A1

How the values were obtained:
[1] = molecular target: HIV-1 Yu2 gp160 (Env) expressed on the 293T cell surface (HIV-1 Yu2) (UniProt P35961); assay: flow cytometry, 293T cells transfected with Yu2 gp160, primary antibody 10 µg/ml
[2] = molecular target: full-length gp120 monomer (HIV-1 (Yu2 by the materials, not named in the results)) (UniProt P35961); assay: SPR (BIAcore), Env protein immobilized on CM5 chip, antibody as analyte
[3] = molecular target: BG505 SOSIP.664 gp140 trimer (HIV-1 BG505); assay: method not given
[4] = molecular target: HIV-1 gp41 (strain not stated) (HIV-1); assay: method not given
[5] = molecular target: full-length gp120 monomer (HIV-1 (Yu2 by the materials, not named in the results)) (UniProt P35961); assay: method not given
[6] = molecular target: BG505 SOSIP.664 gp140 trimer (HIV-1 BG505); assay: ELISA on coated BG505 SOSIP.664 gp140 trimer, OD at 405 nm, 1x PBS as blank
[7] = molecular target: SF162 gp140 trimer (HIV-1 SF162) (UniProt P19550); assay: ELISA on coated SF162 gp140 trimer, OD at 405 nm, 1x PBS as blank
Sequence of SF162 gp140 trimer (HIV-1 SF162) (P19550 32-675 limits assumed): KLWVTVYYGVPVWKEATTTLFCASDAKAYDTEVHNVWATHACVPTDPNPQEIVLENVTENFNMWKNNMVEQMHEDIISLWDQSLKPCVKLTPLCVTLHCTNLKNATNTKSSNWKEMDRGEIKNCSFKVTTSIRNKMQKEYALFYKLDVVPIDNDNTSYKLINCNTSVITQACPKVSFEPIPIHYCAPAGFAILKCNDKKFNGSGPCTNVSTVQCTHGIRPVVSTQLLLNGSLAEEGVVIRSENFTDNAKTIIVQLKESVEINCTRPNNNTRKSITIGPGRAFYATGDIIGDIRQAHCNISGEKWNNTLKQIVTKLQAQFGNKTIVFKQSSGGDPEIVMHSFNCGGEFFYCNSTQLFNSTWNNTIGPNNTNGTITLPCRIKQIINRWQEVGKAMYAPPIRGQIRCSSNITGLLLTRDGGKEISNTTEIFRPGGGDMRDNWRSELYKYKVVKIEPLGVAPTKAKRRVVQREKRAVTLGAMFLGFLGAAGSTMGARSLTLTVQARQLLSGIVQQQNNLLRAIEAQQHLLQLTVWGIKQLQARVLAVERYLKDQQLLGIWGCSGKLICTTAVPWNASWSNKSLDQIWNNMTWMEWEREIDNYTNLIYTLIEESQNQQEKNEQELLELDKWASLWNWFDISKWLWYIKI

[8] = molecular target: HIV-1 gp41 (strain not stated) (HIV-1); assay: SPR (BIAcore), Env protein immobilized on CM5 chip, antibody as analyte
[9] = molecular target: full-length gp120 monomer (HIV-1 (Yu2 by the materials, not named in the results)) (UniProt P35961); assay: ELISA on coated full-length gp120 monomer, OD at 405 nm, 1x PBS as blank
[10] = molecular target: Recombinant HIV-1 gp41MN (HIV-1 MN) (UniProt P05877); assay: ELISA on coated gp41 (HIV-1 MN per the example), OD at 405 nm

Substance	Percentage of recognition of HIV-1 Env [1] [%]	other results
HIV-1 gp120 Monoclonal Antibody (17b)	1.5	Kd [2]: 0.982 nM; koff [2]: 2.59e-06 s⁻¹
HIV 1 V3 Monoclonal Antibody (2442)	6.6	
HIV-1 gp120 Monoclonal Antibody (48d)	3.1	
HIV-1 gp41 Monoclonal (98-6) (antibody)	3.5	
HIV-1 MAb PG9 (antibody)	6	
HIV-1 gp41 Monoclonal Antibody (50-69)	4.5	
HIV-1 gp41 MAb (IgG1 Z13e1) (antibody)	5.2	
NIH45-46 (antibody)		Kd [3]: 0.1 nM; Kd [4]: 1 nM; Kd [5]: 0.1 nM; EC50 (read off the curve) [6]: 0.02 µg/mL; EC50 (read off the curve) [7]: 0.2 µg/mL
HIV-1 gp120 Monoclonal Antibody (F105)	4.5	
HIV-1 gp120 Monoclonal Antibody (F425 B4e8)	6.4	
HIV 1 V3 Monoclonal Antibody (2191)	2.9	
HIV-1 gp120 Monoclonal (2G12) (antibody)	22.8	
HIV-1 anti-gp41 mAb (10E8) (antibody)	11.7	Kd [8]: 15.5 nM; koff [8]: 0.000901 s⁻¹
HIV-1 gp120 Monoclonal Antibody (F425 B4a1)	2.5	
HIV-1 gp120 Monoclonal Antibody (IgG1 b12)	9.8	
HIV 1 V3 Monoclonal Antibody (3074)	3.4	
HIV-1 gp120 MAb (VRC01) (antibody)	6	EC50 (read off the curve) [9]: 0.3 µg/mL; EC50 (read off the curve) [6]: 0.03 µg/mL; EC50 (read off the curve) [7]: 0.05 µg/mL

Substance	Percentage of recognition of HIV-1 Env [1] [%]	other results
HIV 1 V3 Monoclonal Antibody (3869)	2.6	
HIV-1 anti-gp41 mAb (7H6) (antibody)	19.8	
HIV-1 MAb PG16 (antibody)	1.5	
HIV-1 gp41 Monoclonal (126-7) (antibody)	3.2	
HIV-1 gp41 Monoclonal Antibody (F240)	3.5	
Monoclonal Antibodies to HIV-1 V3 (268) (antibody)	2.1	
HIV-1 gp41 Monoclonal Antibody (2F5)	9.9	EC50 (read off the curve) [10]: 0.03 µg/mL
HIV-1 gp120 MAb (VRC03) (antibody)	6.4	
HIV-1 gp120 MAb (A32) (antibody)	79.2	
HIV-1 gp120 MAb (39F) (antibody)	2.6	
HIV-1 gp41 Monoclonal Antibody (5F3)	6.4	
HIV 1 V3 Monoclonal Antibody (2219)	3.1	
HIV-1 gp120 MAb (HJ16) (antibody)	17.6	
HIV-1 V2V3 Monoclonal Antibody (2909)	5.6	
HIV-1 gp41 Monoclonal Antibody (4E10)	13.4	Kd [8]: 10.8 nM; koff [8]: 2.14e-05 s⁻¹; kon [8]: 1980 M⁻¹ s⁻¹; EC50 (read off the curve) [10]: 0.03 µg/mL
HIV 1 gp41 Monoclonal Antibody (167-7, 67-D IV)	11.8	
